“Also recorded” adds a separate entry of the source. Bridges are numbered along the chain shown (N, C = ends). The star is where a group is joined. Biotin = O=C1N[C@H]2[C@H](CS[C@H]2CCCCC(=O)*)N1
Key:
[1] = test system: p67^phox(1–526); assay: Effect of thiol reagents on binding of p67phox(1–526) to Nox2 peptide 24; details: 1 h room temperature
[2] = test system: NADPH oxidase; set-up: method as in 8 sources, one per row (each row's own in cited_ref): ref Shpungin et al., [1989] ||| ref Bellavite et al., [1983]; Gabig and Lefker, [1984] ||| ref Pick et al., [1987] ||| ref Le Cabec and Maridonneau-Parini, [1995] ||| ref Nishida et al., [2005] ||| ...; details: acts on a membrane component; ref Shpungin et al., [1989]; cited from earlier work
[3] = test system: NADPH oxidase in intact phagocytes / neutrophils; set-up: method as in 3 sources, one per row (each row's own in cited_ref): ref Cohen and Chovaniec, [1978]; Yamashita et al., [1984] ||| ref Le Cabec and Maridonneau-Parini, [1995] ||| ref Tsunawaki et al., [2004]; details: added before activation; ref Cohen and Chovaniec, [1978]; Yamashita et al., [1984]; cited from earlier work
[4] = molecular target: NusA-Nox2(357–570) (human) (UniProt P04839); assay: SEC; FPLC gel filtration on HiLoad 16/60 Superdex 200 prep grade; separated a polymeric fraction from a homodimer fraction
[5] = test system: PDI; details: disulfide form; ref Kersteen and Raines, [2003]; Wang et al., [2011]; cited from earlier work
Description: Based on the resemblance of the CXC motif with the CXXC motif characteristic of the catalytic motifs of PDI and thioredoxin, we synthesized analogs of Nox2 peptide 24 ([…]) in which the CGC sequen ...

[6] = molecular target: T1, p67^phox(1–212) (UniProt P19878 1-212); assay: ELISA; peptide—protein binding of p67^phox to Nox2 peptide 28, told in the results without a figure (the introduction gives manuscripts in preparation); details: both partners purified
T1 construct: contains four cysteines (40, 45, 121, 165); source: E. coli, purified (Nickel Sepharose); not shown: 6His, N-terminal, kept
T1 sequence (looked up): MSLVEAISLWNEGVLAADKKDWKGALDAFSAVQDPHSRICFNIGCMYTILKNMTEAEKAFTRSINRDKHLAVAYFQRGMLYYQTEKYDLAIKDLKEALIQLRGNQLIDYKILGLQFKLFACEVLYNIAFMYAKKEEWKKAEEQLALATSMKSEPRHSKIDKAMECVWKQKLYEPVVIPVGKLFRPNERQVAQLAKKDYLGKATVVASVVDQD

[7] = molecular target: T2, p67^phox(1–526) (UniProt P19878 1-526); assay: as above; details: both partners purified
T2 construct: construct as in Mizrahi et al., 2010; also called full-length p67^phox; 6His-p67^phox; source: E. coli, purified (Nickel Sepharose); not shown: 6His, N-terminal, kept
T2 sequence (looked up): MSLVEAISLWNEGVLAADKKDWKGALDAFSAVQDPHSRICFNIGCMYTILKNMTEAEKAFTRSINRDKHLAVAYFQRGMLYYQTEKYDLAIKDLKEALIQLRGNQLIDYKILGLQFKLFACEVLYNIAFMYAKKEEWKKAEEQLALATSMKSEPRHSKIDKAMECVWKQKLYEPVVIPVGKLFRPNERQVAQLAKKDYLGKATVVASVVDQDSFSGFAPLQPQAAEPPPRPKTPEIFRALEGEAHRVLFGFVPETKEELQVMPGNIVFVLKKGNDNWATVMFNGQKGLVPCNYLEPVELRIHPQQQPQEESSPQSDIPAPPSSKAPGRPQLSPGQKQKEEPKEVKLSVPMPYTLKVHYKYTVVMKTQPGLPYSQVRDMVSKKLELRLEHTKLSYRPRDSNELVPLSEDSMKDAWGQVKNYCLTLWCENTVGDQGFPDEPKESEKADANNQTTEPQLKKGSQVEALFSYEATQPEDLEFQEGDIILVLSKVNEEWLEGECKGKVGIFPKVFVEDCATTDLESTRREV

[8] = Binding of thiol reagent mBBr to p67phox(1–212); details: results not shown
[9] = molecular target: T3, NADPH oxidase (macrophage membrane liposomes, cytochrome b558) (Cavia porcellus, UniProt H0UXC6); assay: Cell-free NADPH oxidase activation, amphiphile- and p47phox-dependent; assay type: biochemical, guinea pig; details: for EC50: equal concentrations of p67phox, p47phox and Rac1 Q61L 10–200 nM, LiDS 120 μM, 5 nM cytochrome b558 heme, 90 s (Figure 13A), read-out: EC50, support of NADPH oxidase activation
[10] = molecular target: T3, NADPH oxidase (macrophage membrane liposomes, cytochrome b558); assay: Cell-free NADPH oxidase activation, amphiphile- and p47phox-independent; assay type: biochemical, guinea pig; details: equal concentrations of p67phox and prenylated Rac1 Q61L 50–600 nM, 5 nM cytochrome b558 heme, 5 min (Figure 13B), read-out: EC50, support of NADPH oxidase activation
[11] = test system: Nox2 peptide 24 (357–371); assay: Peptide–protein binding assay, wild type and Cys to Ser mutant p67phox(1–212) to Nox2 peptide 24; details: 3 experiments (Figure 12); for binding to Nox2 peptide 24 in the disulfide form: 24N CGC S-S; for binding to Nox2 peptide 24 in the dithiol (reduced) form: 24N CGC
[12] = test system: p67^phox(1–212); assay: Protein–protein binding assay, p67phox(1–212)
[13] = test system: oxidized insulin; assay: Insulin reduction (turbidimetric) assay; assay type: biochemical; details: up to 5 μM
[14] = test system: p67^phox(1–526); assay: Protein–protein binding assay, p67phox(1–526); details: homodimers, 0.5 μM, p67phox coated at 0.5 μM; one characteristic experiment (Figure 5A)
[15] = PDI reductase activity, DE-GSSG reduction; assay type: biochemical; details: for Vmax, PDI reductase activity (Figure 6B): DTT only 5,124

CCN1C(=O)C=CC1=O [NEM, N-ethylmaleimide]
effect of pretreatment of p67phox on low affinity binding to native form of peptide 24 ([1]; NEM 0.1 mM or diamide 5 mM, three experiments (Figure 2A,B)): suppressed | effect of NEM pretreatment of p67phox on binding to peptide 24 in the disulfide form ([1]; p67^phox(1–526) 1.5 μM, NEM 0.1 mM, three experiments (Figure 2A)): totally abolished | inhibition of oxidase activation in vitro [2]: inhibited | inhibition of oxidase activation in intact phagocytes [3]: inhibited

NusA-Nox2(357–570) (from UniProt P04839 357-570) (domain or fragment)
stoichiometry N [4]: 2

RKCGC (disulfide) [small peptide RKCGC]
mimicry of the actions of PDI protein [5]: can mimic the actions of PDI protein

B1: Nox2 peptide 28 (369–383) with an intramolecular disulfide bond linking cysteines 369 and 371 (peptide)
peptide: Biotin-SGSGCGCDKQEFQDAWKLP-NH2
modifications: disulfide 5-7
SMILES: CC(C)C[C@H](NC(=O)[C@H](CCCCN)NC(=O)[C@H](Cc1c[nH]c2ccccc12)NC(=O)[C@H](C)NC(=O)[C@H](CC(=O)O)NC(=O)[C@H](CCC(N)=O)NC(=O)[C@H](Cc1ccccc1)NC(=O)[C@H](CCC(=O)O)NC(=O)[C@H](CCC(N)=O)NC(=O)[C@H](CCCCN)NC(=O)[C@H](CC(=O)O)NC(=O)[C@@H]1CSSC[C@H](NC(=O)CNC(=O)[C@H](CO)NC(=O)CNC(=O)[C@H](CO)NC(=O)CCCC[C@@H]2SC[C@@H]3NC(=O)N[C@@H]32)C(=O)NCC(=O)N1)C(=O)N1CCC[C@H]1C(N)=O
notes: spacer between the N-terminal biotin and the peptide, printed as Ser-Gly-Ser-Gly; also called peptide 28, disulfide form; source: synthetic peptide (Mimotopes or Bachem); not shown: biotin, N-terminal, kept
binding result [6]: binds | binding result [7]: binds

B2: p67^phox(1–212): wild-type recombinant p67phox residues 1–212 (protein)
chain: MSLVEAISLWNEGVLAADKKDWKGALDAFSAVQDPHSRICFNIGCMYTILKNMTEAEKAFTRSINRDKHLAVAYFQRGMLYYQTEKYDLAIKDLKEALIQLRGNQLIDYKILGLQFKLFACEVLYNIAFMYAKKEEWKKAEEQLALATSMKSEPRHSKIDKAMECVWKQKLYEPVVIPVGKLFRPNERQVAQLAKKDYLGKATVVASVVDQD
modifications: left off: 6His, N-terminal, kept
binding of mBBr [8]: bound mBBr | EC50 [9]: 57.2 nM | EC50 [10]: 224 nM | binding to Nox2 peptide 24 in the disulfide form [11]: much enhanced binding | binding to Nox2 peptide 24 in the dithiol (reduced) form [11]: moderate binding | binding of NusA-Nox2 to p67phox(1–212) relative to p67phox(1–526) ([12]; Figure 5A,B): exceeded

B3: Mutant p67^phox: recombinant p67phox(1–212) in which cysteines 40, 45, 121, and 165 were mutated to serine (protein)
chain: MSLVEAISLWNEGVLAADKKDWKGALDAFSAVQDPHSRISFNIGSMYTILKNMTEAEKAFTRSINRDKHLAVAYFQRGMLYYQTEKYDLAIKDLKEALIQLRGNQLIDYKILGLQFKLFASEVLYNIAFMYAKKEEWKKAEEQLALATSMKSEPRHSKIDKAMESVWKQKLYEPVVIPVGKLFRPNERQVAQLAKKDYLGKATVVASVVDQD
modifications: left off: 6His, N-terminal, kept
notes: recombinant p67phox(1–212) in which cysteines 40, 45, 121, and 165 were mutated to serine
binding of mBBr [8]: did not | increase in EC50 versus wild-type [9]: two-fold | EC50 [9]: 114 nM | EC50 [10]: 405 nM | binding to Nox2 peptide 24 in the disulfide form ([11]; listed as mutant protein): markedly reduced | binding to Nox2 peptide 24 in the dithiol (reduced) form ([11]; listed as mutant protein): lacked binding ability; also recorded: markedly reduced

B4: NusA-Nox2(357–570): fusion protein of NusA and Nox2 residues 357–570, contains the CGC triad (protein)
chain: IVGDWTEGLFNACGCDKQEFQDAWKLPKIAVDGPFGTASEDVFSYEVVMLVGAGIGVTPFASILKSVWYKYCNNATNLKLKKIYFYWLCRDTHAFEWFADLLQLLESQMQERNNAGFLSYNIYLTGWDESQANHFAVHHDEEKDVITGLKQKTLYGRPNWDNEFKTIASQHPNTRIGVFLCGPEALAETLSKQSISNSESGPRGVHFIFNKENF
modifications: left off: NusA (E. coli), N-terminal, kept | His tag (from the purification on Nickel Sepharose), end not stated, state not stated
notes: fusion protein of NusA and Nox2 residues 357–570, contains the CGC triad
insulin reductase activity [13]: no activity could be detected | binding of NusA-Nox2 to p67phox(1–526) [14]: significant binding | Vmax, PDI reductase activity (Figure 7A) ([15]; 1 μM, DE-GSSG 0.8 μM, DTT 12.5 μM, pH 7.0, 24°C, mean ± SEM of 9 experiments): 49,164 ± 2271 | Vmax, PDI reductase activity (Figure 6B) ([15]; 1 μM, DE-GSSG 800 nM, DTT 12.5 μM, one characteristic experiment): 41,130 milli relative fluorescence units per min | PDI activity compared with DTT alone ([15]; 2 μM (Figure 6A)): marked excess | Vmax, PDI reductase activity (Figure 6B) ([15]; 2 μM, DE-GSSG 800 nM, DTT 12.5 μM, one characteristic experiment): 62,074 milli relative fluorescence units per min | Vmax, PDI reductase activity in the absence of PAO (Figure 6D) ([15]; 2 μM, DE-GSSG 800 nM, DTT 12.5 μM, one characteristic experiment, DTT only 8,254): 40,306 milli relative fluorescence units per min | Vmax, PDI reductase activity (Figure 6C) ([15]; 2 μM, DE-GSSG 800 nM, DTT 12.5 μM, one characteristic experiment, DTT only 26,248): 127,476 milli relative fluorescence units per min | Vmax, PDI reductase activity (Figure 6B) ([15]; 3 μM, DE-GSSG 800 nM, DTT 12.5 μM, one characteristic experiment): 73,736 milli relative fluorescence units per min | Vmax, PDI reductase activity (Figure 6B) ([15]; 4 μM, DE-GSSG 800 nM, DTT 12.5 μM, one characteristic experiment): 86,162 milli relative fluorescence units per min | dose dependency of reductase activity ([15]; 1–4 μM (Figure 6B)): clear dose dependency | Vmax, PDI reductase activity (Figure 6A) ([15]; NusA-Nox2(357–570) 2 μM, DE-GSSG 800 nM, DTT 12.5 μM, pH 7.0, 24°C, 30 min, DTT only 7,108 and 9,423): 52,312 ± 1,380 milli relative fluorescence units per min | binding of NusA-Nox2 to p67phox(1–212) ([12]; homodimers, 0.5 μM, p67phox coated at 0.5 μM, one characteristic experiment (Figure 5B)): significant binding

Source: paper PMC4316792, “The dehydrogenase region of the NADPH oxidase component Nox2 acts as a protein disulfide isomerase (PDI) resembling PDIA3 with a role in the binding of the activator protein p67^phox” (Frontiers in Chemistry, 2015)
